Test results reported in PMC10939263 (2024).

B1: SRC kinase associated phosphoprotein 1 (SKAP1), wild type, N2-fused [human] / FRK, C1-fused [not stated] (parent complex)
chain 1: MQAAALPEEIRWLLEDAEEFLAEGLRNENLSAVARDHRDHILRGFQQIKARYYWDFQPQGGDIGQDSSDDNHSGTLGLSLTSDAPFLSDYQDEGMEDIVKGAQELDNVIKQGYLEKKSKDHSFFGSEWQKRWCVVSRGLFYYYANEKSKQPKGTFLIKGYGVRMAPHLRRDSKKESCFELTSQDRRSYEFTATSPAEARDWVDQISFLLKDLSSLTIPYEEDEEEEEKEETYDDIDGFDSPSCGSQCRPTILPGSVGIKEPTEEKEEEDIYEVLPDEEHDLEEDESGTRRKGVDYASYYQGLWDCHGDQPDELSFQRGDLIRILSKEYNMYGWWVGELNSLVGIVPKEYLTTAFEVEER
chain 2: MSNICQRLWEYLEPYLPCLSTEADKSTVIENPGALCSPQSQRHGHYFVALFDYQARTAEDLSFRAGDKLQVLDTLHEGWWFARHLEKRRDGSSQQLQGYIPSNYVAEDRSLQAEPWFFGAIGRSDAEKQLLYSENKTGSFLIRESESQKGEFSLSVLDGAVVKHYRIKRLDEGGFFLTRRRIFSTLNEFVSHYTKTSDGLCVKLGKPCLKIQVPAPFDLSYKTVDQWEIDRNSIQLLKRLGSGQFGEVWEGLWNNTTPVAVKTLKPGSMDPNDFLREAQIMKNLRHPKLIQLYAVCTLEDPIYIITELMRHGSLQEYLQNDTGSKIHLTQQVDMAAQVASGMAYLESRNYIHRDLAARNVLVGEHNIYKVADFGLARVFKVDNEDIYESRHEIKLPVKWTAPEAIRSNKFSIKSDVWSFGILLYEIITYGKMPYSGMTGAQVIQMLAQNYRLPQPSNCPQQFYNIMLECWNAEPKERPTFETLRWKLEDYFETDSSYSDANNFIR
B2: SRC kinase associated phosphoprotein 1 (SKAP1), wild type, N2-fused [human] / SRMS, C1-fused [not stated] (parent complex)
chain 1: B1 chain 1
chain 2: MEPFLRRRLAFLSFFWDKIWPAGGEPDHGTPGSLDPNTDPVPTLPAEPCSPFPQLFLALYDFTARCGGELSVRRGDRLCALEEGGGYIFARRLSGQPSAGLVPITHVAKASPETLSDQPWYFSGVSRTQAQQLLLSPPNEPGAFLIRPSESSLGGYSLSVRAQAKVCHYRVSMAADGSLYLQKGRLFPGLEELLTYYKANWKLIQNPLLQPCMPQKAPRQDVWERPHSEFALGRKLGEGYFGEVWEGLWLGSLPVAIKVIKSANMKLTDLAKEIQTLKGLRHERLIRLHAVCSGGEPVYIVTELMRKGNLQAFLGTPEGRALRLPPLLGFACQVAEGMSYLEEQRVVHRDLAARNVLVDDGLACKVADFGLARLLKDDIYSPSSSSKIPVKWTAPEAANYRVFSQKSDVWSFGVLLHEVFTYGQCPYEGMTNHETLQQIMRGYRLPRPAACPAEVYVLMLECWRSSPEERPSFATLREKLHAIHRCHP
B3: SRC kinase associated phosphoprotein 1 (SKAP1), wild type, N2-fused [human] / BLK, C1-fused [not stated] (parent complex)
chain 1: B1 chain 1
chain 2: not shown
B4: SRC kinase associated phosphoprotein 1 (SKAP1), wild type, N2-fused [human] / FYN (isoform without exon 7), C1-fused [not stated] (parent complex)
chain 1: B1 chain 1
chain 2: not shown
B5: SRC kinase associated phosphoprotein 1 (SKAP1), wild type, N2-fused [human] / LYN, C1-fused [not stated] (parent complex)
chain 1: B1 chain 1
chain 2: MGCIKSKGKDSLSDDGVDLKTQPVRNTERTIYVRDPTSNKQQRPVPESQLLPGQRFQTKDPEEQGDIVVALYPYDGIHPDDLSFKKGEKMKVLEEHGEWWKAKSLLTKKEGFIPSNYVAKLNTLETEEWFFKDITRKDAERQLLAPGNSAGAFLIRESETLKGSFSLSVRDFDPVHGDVIKHYKIRSLDNGGYYISPRITFPCISDMIKHYQKQADGLCRRLEKACISPKPQKPWDKDAWEIPRESIKLVKRLGAGQFGEVWMGYYNNSTKVAVKTLKPGTMSVQAFLEEANLMKTLQHDKLVRLYAVVTREEPIYIITEYMAKGSLLDFLKSDEGGKVLLPKLIDFSAQIAEGMAYIERKNYIHRDLRAANVLVSESLMCKIADFGLARVIEDNEYTAREGAKFPIKWTAPEAINFGCFTIKSDVWSFGILLYEIVTYGKIPYPGRTNADVMTALSQGYRMPRVENCPDELYDIMKMCWKEKAEERPTFDYLQSVLDDFYTATEGQYQQQP

Variants of: B1
Assay: luciferase complementation assay (normalized luciferase ratio, NLR); HEK293T cells; one experiment; read off a plot

Variant | ratio to parent
chain 1 MQAAALPEEIRWLLEDAEEFLAEGLRNENLSAVARDHRDHILRGFQQIKARYYWDFQPQGGDIGQDSSDDNHSGTLGLSLTSDAPFLSDYQDEGMEDIVKGAQELDNVIKQGYLEKKSKDHSFFGSEWQKRWCVVSRGLFYYYANEKSKQPKGTFLIKGYGVRMAPHLRRDSKKESCFELTSQDRRSYEFTATSPAEARDWVDQISFLLKDLSSLTIPYEEDEEEEEKEETYDDIDGFDSPSCGSQCRPTILPGSVGIKEPTEEKEEEDIYEVLPDEEHDLEEDESGTRRKGVDYASYYQGLWDCHGDQPDELSFQRGDLIRILSKEYNMYGKWVGELNSLVGIVPKEYLTTAFEVEER [chain 1 W333K] | ~1.2
chain 1 MQAAALPEEIRWLLEDAEEFLAEGLRNENLSAVARDHRDHILRGFQQIKARYYWDFQPQGGDIGQDSSDDNHSGTLGLSLTSDAPFLSDYQDEGMEDIVKGAQELDNVIKQGYLEKKSKKHSFFGSEWQKRWCVVSRGLFYYYANEKSKQPKGTFLIKGYGVRMAPHLRRDSKKESCFELTSQDRRSYEFTATSPAEARDWVDQISFLLKDLSSLTIPYEEDEEEEEKEETYDDIDGFDSPSCGSQCRPTILPGSVGIKEPTEEKEEEDIYEVLPDEEHDLEEDESGTRRKGVDYASYYQGLWDCHGDQPDELSFQRGDLIRILSKEYNMYGWWVGELNSLVGIVPKEYLTTAFEVEER [chain 1 D120K] | ~1.9

Variants of: B2
Assay: as above

Variant | ratio to parent
chain 1 MQAAALPEEIRWLLEDAEEFLAEGLRNENLSAVARDHRDHILRGFQQIKARYYWDFQPQGGDIGQDSSDDNHSGTLGLSLTSDAPFLSDYQDEGMEDIVKGAQELDNVIKQGYLEKKSKDHSFFGSEWQKRWCVVSRGLFYYYANEKSKQPKGTFLIKGYGVRMAPHLRRDSKKESCFELTSQDRRSYEFTATSPAEARDWVDQISFLLKDLSSLTIPYEEDEEEEEKEETYDDIDGFDSPSCGSQCRPTILPGSVGIKEPTEEKEEEDIYEVLPDEEHDLEEDESGTRRKGVDYASYYQGLWDCHGDQPDELSFQRGDLIRILSKEYNMYGKWVGELNSLVGIVPKEYLTTAFEVEER [chain 1 W333K] | ~1.3

Variants of: B3
Assay: as above

Variant | ratio to parent
chain 1 W333K | ~1.8

Variants of: B4
Assay: as above

Variant | ratio to parent
chain 1 W333K | ~1.2

Variants of: B5
Assay: as above

Variant | ratio to parent
chain 1 W333K | ~2
